{"source": "patent US9909188B2", "about": "“Methods and compositions involving lincRNA and leukemia” (THE REGENTS OF THE UNIVERSITY OF CALIFORNIA, priority 2013, dated 2018)", "key": {"[1]": {"tested_on": "RS411 cell line", "assay": "Apoptosis, caspase-3 activity, RS411", "assay_type": "cell-based, human", "conditions": "for apoptosis measured by caspase-3 activity: RS411 stably transduced", "experimental": "To measure proliferation, cells were cultured for 3-5 days before plating. Reagents were added according to the manufacturer's instructions (Promega CellTiter 96 AQueous Non-Radioactive Cell Proliferation Assay kit) and cells were incubated at 37°, 5% CO2 for 4 hours before absorbance was measured at 490 nm. […] An untreated group and DMSO-treated group were included as controls. Cells were harvested after 24 hours and lysed with buffer supplied by Biovision. Protein concentrations were normalized after measurement by Bradford assay. Reagents were added according to the manufacturer's instructions (Biovision Caspase-3 Colorimetric Assay kit) and absorbance was measured at 405 nm. To observe the effects of prednisolone on lincRNA expression, untransduced cell lines were plated and treated with either 250 μg/mL prednisolone in DMSO or DMSO alone as a control. Cells were incubated at 37° C. and 5% CO2 for 24 hrs. Cells were collected and RNA was extracted using Trizol reagent (Invitrogen)."}, "[2]": {"tested_on": "glucocorticoid receptor signaling pathway", "assay": "Expression of glucocorticoid response genes in RS4;11 cells (microarray, RT-qPCR)", "assay_type": "cell-based, human", "experimental": "(§1) RNA collected from samples was reverse transcribed using qScript reagent (Quanta Biosciences). Real Time quantitative PCR was performed with the StepOnePlus Real-Time PCR System (Applied Biosystems) using PerfeCTa SYBR Green FastMix reagent (Quanta Biosciences).\nSeveral of these clusters consist of genes involved in the glucocorticoid receptor signaling pathway, confirmed by functional annotation results (2-4 fold increases in FOS, HSPA6, SGK1, IL8, JUN, SERPINE1, CDKN1A and ICAM1 in siRNA group, both with and without prednisone treatment; FIGS. 13B and 13C). We confirmed knockdown of BALIR-2 and upregulation of FOS, JUN, SGK1 and SERPINE1 (FIG. 13D-F and FIG. 18E-F) by RT-qPCR. […] We also observed upregulation of the pro-apoptotic protein BIM in both knockdown and prednisolone-treated cells, which is a downstream target of JUN and an important mediator of glucocorticoid-induced apoptosis of lymphocytic cells (Heidari, et al, 2012) (FIGS. 13G and 13K)."}, "[3]": {"tested_on": "70Z/3 cells", "assay": "Apoptosis in 70Z/3 cells (caspase-3 activity)", "assay_type": "cell-based, mouse"}, "[4]": {"tested_on": "BALIR-2", "assay": "Effect of prednisolone on BALIR-2 expression in human B-ALL cell lines (RT-qPCR)", "assay_type": "cell-based", "experimental": "(§2) To measure proliferation, cells were cultured for 3-5 days before plating. Reagents were added according to the manufacturer's instructions (Promega CellTiter 96 AQueous Non-Radioactive Cell Proliferation Assay kit) and cells were incubated at 37°, 5% CO2 for 4 hours before absorbance was measured at 490 nm. To measure apoptosis, cells were plated and treated with 100 ng/mL doxorubicin or 250 μg/mL prednisolone in DMSO and incubated at 37° C. and 5% CO2. An untreated group and DMSO-treated group were included as controls. Cells were harvested after 24 hours and lysed with buffer supplied by Biovision. Protein concentrations were normalized after measurement by Bradford assay. Reagents were added according to the manufacturer's instructions (Biovision Caspase-3 Colorimetric Assay kit) and absorbance was measured at 405 nm. To observe the effects of prednisolone on lincRNA expression, untransduced cell lines were plated and treated with either 250 μg/mL prednisolone in DMSO or DMSO alone as a control. Cells were incubated at 37° C. and 5% CO2 for 24 hrs. Cells were collected and RNA was extracted using Trizol reagent (Invitrogen).\nas §1"}, "[5]": {"tested_on": "glucocorticoid response genes Fos, Jun and Bim", "assay": "Expression of glucocorticoid response genes Fos, Jun and Bim in 70Z/3 cells (RT-qPCR, Western blot)", "assay_type": "cell-based, mouse", "experimental": "as §1\n(§3) RACE was performed and two products were identified at this locus (FIG. 16E). We generated miRNA-formatted siRNAs (Rao, et al., 2010) against the mapped murine transcript and confirmed decreased expression in the murine pre-B cell line 70Z/3 (FIG. 14B). […] Similar to what we observed in human cell lines, Balir-2 knockdown led to an upregulation of Jun and Fos in all three of the cell lines with upregulation of Bim in two out of three cell lines (FIG. 14D-F). We further confirmed the upregulation of these proteins by western blot analysis (FIG. 14G). […] We also examined the effects of BALIR-2 expression in a second human B-ALL cell line, Reh (FIG. 18K-R), utilizing a novel method to target the transcript. Based on the method of Ulitsky et al, we generated a siRNA-like sequence within our miRNA formatted vector, targeting the splice junction of the BALIR-2 transcript (Ulitsky, et al., 2011)."}, "[6]": {"tested_on": "Balir-2", "assay": "Balir-2 expression in 70Z/3 mouse cell line (RT-qPCR, normalized to L32)", "assay_type": "cell-based", "conditions": "70Z/3 cells, 6 hrs", "experimental": "as §1, §3"}, "[7]": {"tested_on": "RS411 cell line", "assay": "Cell proliferation, MTS assay, RS411", "assay_type": "cell-based, human", "conditions": "RS411 stably transduced with siRNA", "experimental": "as §2"}, "[8]": {"tested_on": "BALIR-2", "assay": "siRNA-mediated knockdown of BALIR-2 in human B-ALL cell lines (RT-qPCR, normalized to Actin)", "assay_type": "cell-based", "experimental": "We designed two complementary “linker” strands containing restriction sites for BamHI (5′ intact), XhoI, XbaI, NheI, ApaI and BamHI (3′ mutated) as follows: 5′-[…]-3′ (forward) (SEQ ID NO. 11), 5′-[…]-3′ (reverse) (SEQ ID NO. 12). The oligonucleotides were ordered through Invitrogen and modified with 5′-phosphate groups. The complementary strands were annealed by heating to 100° C. and slowly cooling in a water bath. The pHAGE2-CMV-ZsGreen-W vector (previously described in (O'Connell, 2010)) was digested with BamHI (Fermentas) and the linker was ligated in using T4 DNA ligase (Fermentas). Colonies were sequenced (Laragen) to determine the correct orientation and verify the sequence of the insert and mutation of the 3′ BamHI site. miRNA-formatted siRNAs were cloned into BamHI and ApaI or XhoI in the P2CZL vector, using the strategy that we have previously described to generate knockdown vectors against protein coding genes (O'Connell, 2009; Rao, 2010).\nAll lentiviruses were produced by transfecting 293T adherent cells with knock-down vectors as listed in Table 1, using BioT transfection agent (Bioland Scientific). 2.5×10^5 293T cells were co-transfected in trans using an advanced generation lentiviral system in 6 well plates for 48 hours as described previously (O'Connell, 2010). At 48 hours, the viral supernatant was collected, filtered and used for spin infection of B-ALL cell lines. 5.0×10^5 cells were spin-infected at 30° C. for 90 minutes in the presence polybrene (4 μg/mL). Transduced cells were sorted for high ZsGreen expression as described above.\nas §1"}, "[9]": {"conditions": "RS411 cell line, stably transduced"}}, "data": [{"molecule": "C[C@]12C=CC(=O)C=C1CC[C@@H]1[C@@H]2[C@@H](O)C[C@@]2(C)[C@H]1CC[C@]2(O)C(=O)CO", "note": "[prednisolone]", "values": [{"measurement": "apoptosis after prednisolone treatment", "setting": "[1]; RS4;11 cells", "result": "induction of apoptosis"}, {"measurement": "expression of FOS and JUN after prednisolone treatment", "setting": "[2]; RS4;11 cells", "result": "increased expression"}, {"measurement": "expression of pro-apoptotic protein BIM", "setting": "[2]; RS4;11 cells", "result": "upregulation"}, {"measurement": "apoptosis after prednisolone treatment", "setting": "[3]", "result": "increased apoptosis"}, {"measurement": "BALIR-2 expression after prednisolone treatment", "setting": "[4]; RS4;11 cells", "result": "repressed"}, {"measurement": "decrease in expression of BALIR-2 following treatment", "setting": "[4]; RS411 and NALM6 cell lines treated with prednisolone", "result": "30-50%"}, {"measurement": "expression of Jun, Fos and Bim after prednisolone treatment", "setting": "[5]", "result": "upregulation"}, {"measurement": "Balir-2 expression upon prednisolone treatment", "setting": "[6]", "result": "decreased"}]}, {"molecule": "siRNA1: miR-155 formatted siRNA oligo against BALIR-2; SEQ ID NO:29, targeting sequence SEQ ID NO:39 (nucleic acid, expressed or natural sequence) GAAGGCTGTATGCTGAGATTAGGTTGGCATGATTCTGTTTTGGCCACTGACTGACAGAATCATCAACCTAATCTCAGGACACAAGGCCTG", "values": [{"measurement": "cell proliferation (MTS assay)", "setting": "[7]", "result": "reduced"}, {"measurement": "knockdown of BALIR-2", "setting": "[8]; NALM6 cell line", "result": "do not knock down"}]}, {"molecule": "siRNA3: miR-155 formatted siRNA oligo against BALIR-2; SEQ ID NO:31/41 (nucleic acid, expressed or natural sequence) chain 1: GTAGGCTGTATGCTGTAAGGTAAGTGGCAGGCATTTGTTTTGGCCACTGACTGACAAATGCCTCACTTACCTTATGTATGATGCCTG chain 2: TAAGGTAAGTGGCAGGCATTT", "values": [{"measurement": "knockdown of BALIR-2", "setting": "[8]; [9]", "result": "do not knock down"}]}, {"molecule": "human-miR155-formatted siRNA2: human-miR155-formatted siRNA2 against BALIR-2; SEQ ID NO:34/44, printed as siRNA1-human155f (nucleic acid, expressed or natural sequence) chain 1: GTAGGCTGTATGCTGTTTACTGAAATCTCCTAGGTGGTTTTGGCCACTGACTGACCACCTAGGATTTCAGTAAATGTATGATGCCTG chain 2: TTTACTGAAATCTCCTAGGTG", "values": [{"measurement": "knockdown of BALIR-2", "setting": "[8]; [9]", "result": "do not knock down"}]}, {"molecule": "siRNA2: miR-155 formatted siRNA oligo against BALIR-2; SEQ ID NO:30, targeting sequence SEQ ID NO:40 (nucleic acid, expressed or natural sequence) GAAGGCTGTATGCTGTTTACTGAAATCTCCTAGGTGGTTTTGGCCACTGACTGACCACCTAGGATTTCAGTAAACAGGACACAAGGCCTG", "values": [{"measurement": "apoptosis measured by caspase-3 activity", "setting": "[1]; DMSO", "result": "Increased apoptosis"}, {"measurement": "apoptosis measured by caspase-3 activity", "setting": "[1]; no treatment", "result": "Increased apoptosis"}, {"measurement": "increases in FOS, HSPA6, SGK1, IL8, JUN, SERPINE1, CDKN1A and ICAM1 in siRNA group", "setting": "[2]; RS4;11, microarray, both with and without prednisone treatment", "result": "2-4 fold"}, {"measurement": "expression of FOS, JUN, SGK1 and SERPINE1 by RT-qPCR after knockdown", "setting": "[2]; RS4;11 cells", "result": "upregulation"}, {"measurement": "expression of pro-apoptotic protein BIM", "setting": "[2]; RS4;11 cells", "result": "upregulation"}, {"measurement": "knockdown of BALIR-2", "setting": "[8]; NALM6 cell line", "result": "do not knock down"}, {"measurement": "knockdown of BALIR-2", "setting": "[8]; [9]", "result": "greatest degree of knockdown"}]}, {"molecule": "siRNA4: miR-155 formatted siRNA oligo against BALIR-2; SEQ ID NO:32/42 (nucleic acid, expressed or natural sequence) chain 1: GTAGGCTGTATGCTGTTTCACGGTGTGGCAGCTTTCGTTTTGCCTCCAACTGAGAAAGCTGACACCGTGAAATGTATGATGCCTG chain 2: TTTCACGGTGTGGCAGCTTTC", "values": [{"measurement": "knockdown of BALIR-2", "setting": "[8]; [9]", "result": "do not knock down"}]}, {"molecule": "human-miR155-formatted siRNA1: human-miR155-formatted siRNA1 against BALIR-2; SEQ ID NO:33/43 (nucleic acid, expressed or natural sequence) chain 1: GTAGGCTGTATGCTGAGATTAGGTTGGCATGATTCTGTTTTGGCCACTGACTGACAGAATCATCAACCTAATCTTGTATGATGCCTG chain 2: AGATTAGGTTGGCATGATTCT", "values": [{"measurement": "knockdown of BALIR-2", "setting": "[8]; [9]", "result": "do not knock down"}]}]}
